Experiments:
Assay in all cases: holdup assay
Set-up in all cases: key: below the threshold = too weak to quantify, mostly under pKd 3.1 to 4
Settings in all cases: plain residues with an end cap or a label only (N-terminal biotin on a linker: ado-ado)
PDLIM1, O00151 = molecular target: PDLIM1, O00151
Inadl_8, Q8NI35 = molecular target: Inadl_8, Q8NI35
LIN7A, O14910 = molecular target: T1, LIN7A, O14910
T1 sequence (O14910 103-200, limits assumed, looked up): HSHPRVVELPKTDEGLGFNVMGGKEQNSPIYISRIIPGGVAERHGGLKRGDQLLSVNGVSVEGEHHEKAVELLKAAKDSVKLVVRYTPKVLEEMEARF

APBA2_1, Q99767 = molecular target: T2, APBA2_1, Q99767
T2 sequence (Q99767 563-664, limits assumed, looked up): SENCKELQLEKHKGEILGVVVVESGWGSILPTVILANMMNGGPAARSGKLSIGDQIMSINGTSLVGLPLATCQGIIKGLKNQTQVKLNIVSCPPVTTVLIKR

SNTG1, Q9NSN8 = molecular target: T3, SNTG1, Q9NSN8
T3 sequence (Q9NSN8 52-150, limits assumed, looked up): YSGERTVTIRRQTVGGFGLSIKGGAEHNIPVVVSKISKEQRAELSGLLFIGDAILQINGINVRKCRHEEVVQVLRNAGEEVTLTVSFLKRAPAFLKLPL

IL16_4, Q14005 = molecular target: IL16_4, Q14005
Sequence of IL16_4, Q14005 (Q14005 1229-1329): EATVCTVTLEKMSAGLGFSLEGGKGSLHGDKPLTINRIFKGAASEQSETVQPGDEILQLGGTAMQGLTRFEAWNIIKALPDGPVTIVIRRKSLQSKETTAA

HTRA1, Q92743 = molecular target: HTRA1, Q92743
Sequence of HTRA1, Q92743 (Q92743 360-477): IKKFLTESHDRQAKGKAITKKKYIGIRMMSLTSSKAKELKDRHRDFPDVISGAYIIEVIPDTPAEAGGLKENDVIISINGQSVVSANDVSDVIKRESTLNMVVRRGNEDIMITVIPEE

FRMPD1, Q5SYB0 = molecular target: T4, FRMPD1, Q5SYB0
T4 sequence (Q5SYB0 52-145, limits assumed, looked up): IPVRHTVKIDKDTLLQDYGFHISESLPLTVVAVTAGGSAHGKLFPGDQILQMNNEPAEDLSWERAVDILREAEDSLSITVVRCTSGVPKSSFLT

TJP1_3, Q07157 = molecular target: TJP1_3, Q07157
Sequence of TJP1_3, Q07157 (Q07157 416-512): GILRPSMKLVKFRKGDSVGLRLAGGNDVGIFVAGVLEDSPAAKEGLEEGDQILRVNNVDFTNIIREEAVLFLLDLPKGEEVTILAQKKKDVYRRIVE

GRIP1_2, Q9Y3R0 = molecular target: T5, GRIP1_2, Q9Y3R0
T5 sequence (Q9Y3R0 145-248, limits assumed, looked up): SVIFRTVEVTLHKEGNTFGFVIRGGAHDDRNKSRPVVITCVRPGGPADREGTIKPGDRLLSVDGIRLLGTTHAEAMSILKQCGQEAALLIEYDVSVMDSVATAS

LIN7B, Q9HAP6 = molecular target: T6, LIN7B, Q9HAP6
T6 sequence (Q9HAP6 88-185, limits assumed, looked up): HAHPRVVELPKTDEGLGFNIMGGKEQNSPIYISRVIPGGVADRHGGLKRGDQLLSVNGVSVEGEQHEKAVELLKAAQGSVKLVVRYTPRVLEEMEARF

DVL3, Q92997 = molecular target: T7, DVL3, Q92997
T7 sequence (Q92997 244-331, limits assumed, looked up): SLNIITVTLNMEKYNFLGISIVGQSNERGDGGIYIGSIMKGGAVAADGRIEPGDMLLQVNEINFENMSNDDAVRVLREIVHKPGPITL

DLG3_1, Q92796 = molecular target: T8, DLG3_1, Q92796
T8 sequence (Q92796 125-227, limits assumed, looked up): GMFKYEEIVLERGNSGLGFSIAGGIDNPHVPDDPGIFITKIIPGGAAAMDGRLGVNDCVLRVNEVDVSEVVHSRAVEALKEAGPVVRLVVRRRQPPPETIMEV

FRMPD2_2, Q68DX3 = molecular target: FRMPD2_2, Q68DX3
Sequence of FRMPD2_2, Q68DX3 (Q68DX3 944-1038): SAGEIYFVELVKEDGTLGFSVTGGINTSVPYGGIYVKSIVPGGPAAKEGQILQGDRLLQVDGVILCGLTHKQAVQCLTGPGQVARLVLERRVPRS

GORASP2, Q9H8Y8 = molecular target: GORASP2, Q9H8Y8
SCRIB_3, Q14160 = molecular target: SCRIB_3, Q14160
Sequence of SCRIB_3, Q14160 (Q14160 999-1103): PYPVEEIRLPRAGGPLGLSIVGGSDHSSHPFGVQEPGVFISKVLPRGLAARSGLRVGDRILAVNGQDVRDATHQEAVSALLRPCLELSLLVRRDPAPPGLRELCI

LAP2, Q96RT1 = molecular target: LAP2, Q96RT1
Sequence of LAP2, Q96RT1 (Q96RT1 other isoform, or with tags, fused parts or gaps): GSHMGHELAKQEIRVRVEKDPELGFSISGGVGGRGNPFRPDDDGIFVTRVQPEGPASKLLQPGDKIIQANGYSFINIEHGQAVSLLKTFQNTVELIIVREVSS

LNX1_3, Q8TBB1 = molecular target: LNX1_3, Q8TBB1
Sequence of LNX1_3, Q8TBB1 (Q8TBB1 500-596): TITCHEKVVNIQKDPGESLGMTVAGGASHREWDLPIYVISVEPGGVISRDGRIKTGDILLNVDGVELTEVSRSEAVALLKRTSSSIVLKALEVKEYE

PDZRN3_1, Q9UPQ7 = molecular target: T9, PDZRN3_1, Q9UPQ7
T9 sequence (Q9UPQ7 244-349, limits assumed, looked up): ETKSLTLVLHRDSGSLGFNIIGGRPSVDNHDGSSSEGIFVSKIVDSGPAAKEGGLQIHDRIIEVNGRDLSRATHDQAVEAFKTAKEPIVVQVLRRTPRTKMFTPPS

NHERF4_1, Q86UT5-2 = molecular target: NHERF4_1, Q86UT5-2
Sequence of NHERF4_1, Q86UT5-2 (Q86UT5 other isoform, or with tags, fused parts or gaps): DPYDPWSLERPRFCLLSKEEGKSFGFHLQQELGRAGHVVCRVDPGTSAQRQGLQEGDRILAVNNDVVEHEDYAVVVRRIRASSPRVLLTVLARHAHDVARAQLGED

DLG3_2, Q92796 = molecular target: T10, DLG3_2, Q92796
T10 sequence (Q92796 221-321, limits assumed, looked up): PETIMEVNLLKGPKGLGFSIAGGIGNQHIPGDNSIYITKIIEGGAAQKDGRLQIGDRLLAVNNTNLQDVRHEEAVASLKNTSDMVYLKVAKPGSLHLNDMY

MPP6, Q9NZW5 = molecular target: T11, MPP6, Q9NZW5
T11 sequence (Q9NZW5 125-219, limits assumed, looked up): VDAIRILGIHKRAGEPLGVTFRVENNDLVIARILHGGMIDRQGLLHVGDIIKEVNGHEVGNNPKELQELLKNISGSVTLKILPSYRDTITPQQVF

PCLO, Q9Y6V0 = molecular target: T12, PCLO, Q9Y6V0
T12 sequence (Q9Y6V0 4491-4600, limits assumed, looked up): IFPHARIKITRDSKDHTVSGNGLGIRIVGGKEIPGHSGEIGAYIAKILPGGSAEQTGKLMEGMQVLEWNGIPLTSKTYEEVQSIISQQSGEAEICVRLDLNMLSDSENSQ

HTRA2, O43464 = molecular target: HTRA2, O43464
Sequence of HTRA2, O43464 (O43464 355-458): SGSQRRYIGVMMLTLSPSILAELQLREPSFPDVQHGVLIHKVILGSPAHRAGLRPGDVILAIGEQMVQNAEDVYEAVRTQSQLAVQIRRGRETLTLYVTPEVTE

GRID2IP_1, A4D2P6 = molecular target: GRID2IP_1, A4D2P6
Sequence of GRID2IP_1, A4D2P6 (A4D2P6 1-87): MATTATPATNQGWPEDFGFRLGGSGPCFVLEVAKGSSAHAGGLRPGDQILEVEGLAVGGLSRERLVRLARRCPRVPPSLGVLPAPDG

ARHGEF12, Q9NZN5-2 = molecular target: ARHGEF12, Q9NZN5-2
Sequence of ARHGEF12, Q9NZN5-2 (Q9NZN5 other isoform, or with tags, fused parts or gaps): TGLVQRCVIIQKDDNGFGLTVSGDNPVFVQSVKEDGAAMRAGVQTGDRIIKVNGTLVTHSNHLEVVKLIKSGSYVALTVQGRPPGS

Sequence of Inadl_8, Q8NI35 (Q8NI35 1425-1530): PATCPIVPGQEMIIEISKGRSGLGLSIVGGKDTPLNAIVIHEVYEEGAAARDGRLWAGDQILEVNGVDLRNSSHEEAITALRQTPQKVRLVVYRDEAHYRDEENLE
Sequence of PDLIM1, O00151 (O00151 1-87): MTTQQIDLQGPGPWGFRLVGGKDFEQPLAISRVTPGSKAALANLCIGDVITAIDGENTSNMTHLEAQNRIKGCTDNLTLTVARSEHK

B1: PTGIR, P43119 (peptide)
chain: AEASVACSLC
pKd (PDLIM1, O00151): below the threshold | pKd (Inadl_8, Q8NI35): 3.77 | pKd (LIN7A, O14910): below the threshold | pKd (APBA2_1, Q99767): below the threshold | pKd (SNTG1, Q9NSN8): below the threshold | pKd (IL16_4, Q14005): below the threshold | pKd (HTRA1, Q92743): 3.93 | pKd (FRMPD1, Q5SYB0): below the threshold | pKd (TJP1_3, Q07157): below the threshold | pKd (GRIP1_2, Q9Y3R0): below the threshold | pKd (LIN7B, Q9HAP6): below the threshold | pKd (DVL3, Q92997): below the threshold | pKd (DLG3_1, Q92796): below the threshold | pKd (FRMPD2_2, Q68DX3): below the threshold | pKd (GORASP2, Q9H8Y8): below the threshold | pKd (SCRIB_3, Q14160): below the threshold | pKd (LAP2, Q96RT1): below the threshold | pKd (LNX1_3, Q8TBB1): below the threshold | pKd (PDZRN3_1, Q9UPQ7): below the threshold | pKd (NHERF4_1, Q86UT5-2): 4.54 | pKd (DLG3_2, Q92796): 3.69 | pKd (MPP6, Q9NZW5): below the threshold | pKd (PCLO, Q9Y6V0): below the threshold | pKd (HTRA2, O43464): 3.78 | pKd (GRID2IP_1, A4D2P6): below the threshold | pKd (ARHGEF12, Q9NZN5-2): 3.53

B2: CACNG2, Q9Y698 (peptide)
chain: NTANRRTTPV
pKd (PDLIM1, O00151): below the threshold | pKd (Inadl_8, Q8NI35): 4.23 | pKd (LIN7A, O14910): below the threshold | pKd (APBA2_1, Q99767): below the threshold | pKd (SNTG1, Q9NSN8): below the threshold | pKd (IL16_4, Q14005): below the threshold | pKd (HTRA1, Q92743): below the threshold | pKd (FRMPD1, Q5SYB0): below the threshold | pKd (TJP1_3, Q07157): below the threshold | pKd (GRIP1_2, Q9Y3R0): below the threshold | pKd (LIN7B, Q9HAP6): below the threshold | pKd (DVL3, Q92997): below the threshold | pKd (DLG3_1, Q92796): 3.61 | pKd (FRMPD2_2, Q68DX3): 3.59 | pKd (GORASP2, Q9H8Y8): below the threshold | pKd (SCRIB_3, Q14160): 3.92 | pKd (LAP2, Q96RT1): below the threshold | pKd (LNX1_3, Q8TBB1): below the threshold | pKd (PDZRN3_1, Q9UPQ7): 4.23 | pKd (NHERF4_1, Q86UT5-2): below the threshold | pKd (DLG3_2, Q92796): 4.44 | pKd (MPP6, Q9NZW5): below the threshold | pKd (PCLO, Q9Y6V0): below the threshold | pKd (HTRA2, O43464): below the threshold | pKd (GRID2IP_1, A4D2P6): below the threshold | pKd (ARHGEF12, Q9NZN5-2): 3.93

B3: CACNG8, Q8WXS5 (peptide)
chain: NTLNRKTTPV
pKd (PDLIM1, O00151): below the threshold | pKd (Inadl_8, Q8NI35): 4.2 | pKd (LIN7A, O14910): below the threshold | pKd (APBA2_1, Q99767): below the threshold | pKd (SNTG1, Q9NSN8): below the threshold | pKd (IL16_4, Q14005): 3.59 | pKd (HTRA1, Q92743): below the threshold | pKd (FRMPD1, Q5SYB0): below the threshold | pKd (TJP1_3, Q07157): below the threshold | pKd (GRIP1_2, Q9Y3R0): 3.61 | pKd (LIN7B, Q9HAP6): below the threshold | pKd (DVL3, Q92997): below the threshold | pKd (DLG3_1, Q92796): 3.58 | pKd (FRMPD2_2, Q68DX3): 3.85 | pKd (GORASP2, Q9H8Y8): below the threshold | pKd (SCRIB_3, Q14160): 3.88 | pKd (LAP2, Q96RT1): below the threshold | pKd (LNX1_3, Q8TBB1): below the threshold | pKd (PDZRN3_1, Q9UPQ7): 3.97 | pKd (NHERF4_1, Q86UT5-2): 3.67 | pKd (DLG3_2, Q92796): 4.59 | pKd (MPP6, Q9NZW5): 3.93 | pKd (PCLO, Q9Y6V0): below the threshold | pKd (HTRA2, O43464): below the threshold | pKd (GRID2IP_1, A4D2P6): below the threshold | pKd (ARHGEF12, Q9NZN5-2): 4.05

Reference: PMC9482650, “Quantitative fragmentomics allow affinity mapping of interactomes” (Nature Communications, 2022)
